# Experiments:
# [1] = GDH total turnover number (TTN) determination; assay type: biochemical; conditions: NMN^+, GDH 0.47 μM, 33 mM ketoisophorone, 96 hours
# Procedure: GDH Total Turnover Number (TTN) Determination. Total turnover number (TTN) was determined by the number of moles of product formed divided by the moles of purified GDH added. The assays were performed in reaction buffer A, as shown above, at 30° C. Ketoisophorone (33 mM) was used as the substrate. The reaction was started by spiking purified proteins (0.0132 mg mL^−1 or 0.47 μM for GDH, 0.75 mg mL^−1 for XenA). Samples were taken every 12 hours for 96 hours. The extraction and GC-FID analysis were performed using a similar method as mentioned above.
# [2] = GDH enzymatic assay with NAD^+ as cofactor; assay type: biochemical; conditions: for decrease of catalytic efficiency on NAD^+: versus wild type
# Procedure: (§1) GDH enzymatic assays. The GDH activity was measured as described in Hilt et al. (Biochimica et biophysica acta 1076(2):298-304 (1991)). The reactions were started by adding the purified protein to the assay mixture containing 35 mM Tris-HCl buffer (pH 8.0), 3 mM NAD^+, NADP^+ or NMN^+ and 140 mM glucose. The absorbance variation at 340 nm was detected by a spectrophotometer at 25° C.
# [3] = OYE3-GDH coupled cycling assay; assay type: biochemical; conditions: OYE3, NMN^+
# Procedure: (§2) Coupled enzymatic biotransformation. All biotransformation reactions were performed in buffer A at 30° C. for 24 hours. Reaction buffer A, modified from that disclosed in Chaparro-Riggers et al., Advanced Synthesis & Catalysis 349(8-9):1521-1531 (2007)), contained 200 mM potassium phosphate buffer (pH 7.5), 1 M NaCl, 300 mM D-glucose, 6 mM NMN^+ (or NADP^+ as the positive control), and substrates. All assays were performed in triplicate, with no proteins or no cofactors added as negative controls. The protein loading for GDH variants was kept at 0.33 mg mL^−1 or 11.7 μM. The various enzymes for biotransformation reactions were added at the concentration of 0.75 mg mL^−1.
# (§3) For XenA-GDH coupled cycling assays, the substrates ketoisophorone, citral, or trans-2-hexen-1-al were added at 33 mM, 10 mM, or 50 mM, respectively. […] Conversion was determined via GC-FID with octanol as an internal standard (see below). […] Nitrofurazone conversion was measured spectroscopically at 400 nm and quantification was performed using a standard curve. The initial levels of the above-mentioned substrates were mainly determined by their solubility in the assay buffer. […] The reduction of cytochrome c was measured spectroscopically at 550 nm. and the quantification was performed using extinction coefficient ε550 of 21.1 mM^−1 cm^−1.
# [4] = XenA-GDH coupled cycling biotransformation of ketoisophorone to levodione; assay type: biochemical
# Procedure: as §2
# For XenA-GDH coupled cycling assays, the substrates ketoisophorone, citral, or trans-2-hexen-1-al were added at 33 mM, 10 mM, or 50 mM, respectively. For the OYE3-GDH coupled cycling assays, the substrate 4-phenyl-3-butyn-2-one was added at 5 mM. At various time points over 24 hours, 100 μL samples were taken and extracted with 100 μL ethyl acetate. Conversion was determined via GC-FID with octanol as an internal standard (see below). For NfsB-GDH coupled cycling assays, 2 mM nitrofurazone was used as the substrate. Nitrofurazone conversion was measured spectroscopically at 400 nm and quantification was performed using a standard curve. The initial levels of the above-mentioned substrates were mainly determined by their solubility in the assay buffer. For BM3-GDH coupled cycling assays, 50 μM cytochrome c (C2506 Sigma) was used as the substrate. The reduction of cytochrome c was measured spectroscopically at 550 nm. and the quantification was performed using extinction coefficient ε550 of 21.1 mM^−1 cm^−1.
# Coupled cycling conditions: All biotransformation reactions were performed in buffer A at 30° C. for 24 hours. Reaction buffer A contained 200 mM potassium phosphate buffer (pH 7.5), 1 M NaCl, 300 mM D-glucose, 6 mM NMN^+. Substrate ketoisophorone was added at 5 g/L. At various time points over 24 hours, 100 μL samples were taken and extracted with 100 μL ethyl acetate. Conversion was determined via GC-FID with octanol as an internal standard (see below).
# [5] = XenA-GDH coupled cycling assay, trans-2-hexen-1-al; assay type: biochemical; conditions: 50 mM, 24 hours, NMN^+
# Procedure: as §2, §3
# [6] = NfsB-GDH coupled cycling assay; assay type: biochemical; conditions: NMN^+
# Procedure: as §2, §3
# [7] = system: cytochrome c; assay: BM3-GDH coupled cycling assay; assay type: biochemical; conditions: BM3 W1046S, NMNH generated in situ
# Procedure: as §2, §3
# [8] = Protein expression levels of GDH variants; parameters: species or system Escherichia coli; conditions: expressed in E. coli
# Procedure: Proteins were purified as 6×His tag fusion at the N-terminus. E. coli BL21 (DE3) with plasmids were inoculated into LB medium with 200 mg L^−1 ampicillin. Cells were induced with 0.5 mM IPTG and expressed for 24 hours at 30° C. with shaking at 250 rpm. BM3 cytochrome P450 was extracted with the EMD Millipore™ BugBuste Plus Lysonase Kit and purified using the HisPur™ Ni-NTA Superflow Purification System according to the manufacturer's instructions. Other proteins were purified using His-Spin Protein Miniprep kit (Zymo Research Corporation, CA). The purified proteins were quantified by Bradford assay.
# [9] = GDH enzymatic assay with NMN^+ as cofactor; assay type: biochemical; conditions: for overall specificity switch towards NMN^+ from NADP^+ / overall specificity switch towards NMN^+ from NAD^+: compared to wild type
# Procedure: as §1
# [10] = GDH enzymatic assay with NADP^+ as cofactor; assay type: biochemical; conditions: for decrease of catalytic efficiency on NADP^+: versus wild type
# Procedure: as §1
# [11] = XenA-GDH coupled cycling assay, citral; assay type: biochemical; conditions: 10 mM citral, 24 hours, NMN^+
# Procedure: as §2, §3
molecule,measurement,setting,value
"I195R-A93K-Y39Q: Bs GDH with I195R, A93K, Y39Q substitutions (SEQ ID NO:6) (protein, I195R A93K Y39Q mutant GDH coding sequence) MYPDLKGKVVAITGAASGLGKAMAIRFGKEQAKVVINYQSNKQDPNEVKEEVIKAGGEAVVVQGDVTKEEDVKNIVQTAIKEFGTLDIMINNKGLENPVPSHEMPLKDWDKVIGTNLTGAFLGSREAIKYFVENDIKGNVINMSSVHEVIPWPLFVHYAASKGGIKLMTETLALEYAPKGIRVNNIGPGAINTPRNAEKFADPKQKADVESMIPMGYIGEPEEIAAVAAWLASKEASYVTGITLFADGGMTQYPSFQAGRG",total turnover number (TTN),[1],"39,000"
same,Kcat,[2]; cofactor NAD^+,0.41 ± 0.026 s⁻¹
same,Km,[2]; cofactor NAD^+,3.7 ± 0.93 mM
same,decrease of catalytic efficiency on NAD^+,[2],38 fold
same,decrease of catalytic efficiency on NAD^+,[2]; listed as GDH Triple,"1,600 fold"
same,conversion of 4-phenyl-3-butyne-2-one,[3],> 99%
same,initial productivity of levodione,"[4]; NMN^+ as cycling cofactor, XenA in excess, GDH 11.7 μM",~1.15 µM/s
same,initial turnover frequency,"[4]; NMN^+, Bs GDH loading 11.7 μM",~0.10 s⁻¹
same,improvement of NMN^+-dependent productivity,[4]; versus wild type Bs GDH,22 fold
same,conversion of trans-2-hexen-1-al,[5],~49%
same,conversion of nitrofurazone,[6],~92%
same,conversion (reduction) of cytochrome c,[7],> 99%
same,Expression level,[8],25.37 μg protein/ml culture
same,increase in catalytic efficiency over the wild-type enzyme towards NMN^+,[9],"1,000 fold"
same,improvement in catalytic efficiency over I195R,[9]; NMN^+,4 fold
same,Kcat,[9]; cofactor NMN^+,3.1 ± 0.037 s⁻¹
same,Km,[9]; cofactor NMN^+,6.1 ± 0.83 mM
same,overall specificity switch towards NMN^+ from NADP^+,[9],"1,600,000 fold"
same,overall specificity switch towards NMN^+ from NAD^+,[9],"38,000 fold"
same,overall specificity switch towards NMN^+ from NADP^+,[9]; listed as GDH Triple,"38,000 fold"
same,overall specificity switch towards NMN^+ from NAD^+,[9]; listed as GDH Triple,"1,600,000 fold"
same,Kcat,[10]; cofactor NADP^+,4.4 ± 0.034 s⁻¹
same,Km,[10]; cofactor NADP^+,0.61 ± 0.15 mM
same,decrease of catalytic efficiency on NADP^+,[10],"1,600 fold"
same,decrease of catalytic efficiency on NADP^+,[10]; listed as GDH Triple,38 fold
same,conversion of citral,[11],~76%

# — US12618050B2, “Engineered polypeptides that exhibit increased catalytic efficiency for unnatural cofactors and uses thereof” (The Regents of the University of California, priority 2018, dated 2026)
